Where “and” joins values, the source holds several entries; their conditions need not be identical. Equal entries are not always repeated.
Assays:
[1] = molecular target: T1, human CD64 (human FcγRI) (human, UniProt P12314 16-292, limits assumed); assay: SPR, fit 1:1 Binding, Exp No 2
T1 construct: also called HuFcyRI

[2] = molecular target: T1, human CD64 (human FcγRI); assay: SPR, fit 1:1 Binding, Exp No 1
[3] = molecular target: T2, human NKp46 on NK cells purified from PBMC of healthy donors (human, UniProt O76036 22-304); assay: flow cytometry titration on resting human NK cells from healthy donors, detection with goat anti-human IgG Fcγ-PE; representative titration; NK cells also carry CD16a
T2 construct: whole, on cells; also called NKp46 on donor NK cells
T2 sequence (O76036 22-304): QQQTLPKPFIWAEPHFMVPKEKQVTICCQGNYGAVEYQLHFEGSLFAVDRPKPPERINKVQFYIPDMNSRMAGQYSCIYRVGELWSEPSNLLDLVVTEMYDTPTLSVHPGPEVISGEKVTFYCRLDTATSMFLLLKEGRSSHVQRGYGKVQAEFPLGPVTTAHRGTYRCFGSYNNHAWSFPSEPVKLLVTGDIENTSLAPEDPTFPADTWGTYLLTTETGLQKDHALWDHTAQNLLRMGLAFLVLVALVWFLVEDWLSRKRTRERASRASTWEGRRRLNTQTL
Procedure: (§1) After staining, cells were resuspended in BD Cellfix and analyzed by flow cytometry. Parameters were recorded and analysed with FlowJo software. Staining EC50 values were calculated with GraphPad prism using 4 parameter logistics non-linear regression model.

[4] = molecular target: T3, human CD32a (human FcγRIIA) (human, UniProt P12318 34-217, limits assumed); assay: SPR, fit Steady State Affinity, mean of 3 experiments
T3 construct: also called HuFcyRIIa
T3 sequence (looked up): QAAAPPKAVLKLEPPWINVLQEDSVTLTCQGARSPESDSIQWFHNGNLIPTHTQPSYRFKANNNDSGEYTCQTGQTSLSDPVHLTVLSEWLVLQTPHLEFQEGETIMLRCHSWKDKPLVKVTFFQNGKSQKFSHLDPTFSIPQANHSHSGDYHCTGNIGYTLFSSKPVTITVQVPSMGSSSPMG

[5] = molecular target: T4, cynomolgus CD32a (cynomolgus); assay: as above
T4 construct: also called CyFcyRIIa

[6] = molecular target: T5, human CD16b (human FcgRIIIB) (human, UniProt O75015 17-200, limits assumed); assay: as above
T5 construct: also called HuFcyRIIIb
T5 sequence (O75015 17-200 limits assumed): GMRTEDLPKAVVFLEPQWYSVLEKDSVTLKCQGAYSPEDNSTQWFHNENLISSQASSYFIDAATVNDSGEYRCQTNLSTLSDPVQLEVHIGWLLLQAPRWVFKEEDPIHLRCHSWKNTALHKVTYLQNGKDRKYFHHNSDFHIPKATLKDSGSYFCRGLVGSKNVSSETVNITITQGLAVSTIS

[7] = molecular target: T6, human CD32b (human FcγRIIB) (human, UniProt P31994 43-217, limits assumed); assay: as above
T6 construct: also called HuFcyRIIb
T6 sequence (looked up): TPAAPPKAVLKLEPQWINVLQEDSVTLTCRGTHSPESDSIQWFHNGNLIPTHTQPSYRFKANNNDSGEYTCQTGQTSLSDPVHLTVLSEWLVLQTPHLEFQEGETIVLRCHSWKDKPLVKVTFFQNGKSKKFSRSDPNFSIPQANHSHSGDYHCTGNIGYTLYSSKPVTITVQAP

[8] = molecular target: T7, cynomolgus CD32b (cynomolgus); assay: as above
T7 construct: also called CyFcyRIIb

[9] = molecular target: T8, human BCMA on RPMI 8226 multiple myeloma cells (human, UniProt Q02223 1-184); assay: flow cytometry titration on RPMI 8226 cells, detection with goat anti-human IgG Fcγ-PE; representative titration
T8 construct: whole, on cells; also called BCMA on RPMI cells
T8 sequence (looked up): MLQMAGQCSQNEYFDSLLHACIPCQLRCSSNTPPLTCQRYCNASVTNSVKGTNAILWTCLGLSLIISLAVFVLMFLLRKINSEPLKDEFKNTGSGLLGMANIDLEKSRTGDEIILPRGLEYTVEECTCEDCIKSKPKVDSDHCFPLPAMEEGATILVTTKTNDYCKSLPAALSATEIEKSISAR
Procedure: as §1

[10] = molecular target: T9, human CD16a (human FcγRIIIA), V isoform (human, UniProt P08637 17-208); assay: SPR, fit Two State Reaction, Exp No 3
T9 construct: also called HuFcyRIIIaV; CD16a (V176)
T9 sequence (P08637 17-208 F176V limits assumed): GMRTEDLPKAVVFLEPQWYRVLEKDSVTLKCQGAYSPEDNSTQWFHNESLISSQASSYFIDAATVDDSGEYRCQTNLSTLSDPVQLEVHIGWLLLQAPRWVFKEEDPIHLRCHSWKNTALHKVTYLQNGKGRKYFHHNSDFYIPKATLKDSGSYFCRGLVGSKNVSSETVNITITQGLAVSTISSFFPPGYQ

[11] = molecular target: T10, cynomolgus CD16 (cynomolgus, UniProt Q8SPW2 17-208); assay: SPR, fit Two State Reaction, Exp No 3
T10 construct: also called CyFcyRIII
T10 sequence (Q8SPW2 17-208): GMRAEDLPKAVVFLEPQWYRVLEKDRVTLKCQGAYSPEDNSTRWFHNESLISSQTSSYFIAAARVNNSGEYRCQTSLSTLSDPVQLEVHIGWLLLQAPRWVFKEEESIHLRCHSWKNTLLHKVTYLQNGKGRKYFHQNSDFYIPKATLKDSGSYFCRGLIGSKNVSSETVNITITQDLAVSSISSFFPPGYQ

[12] = molecular target: T2, human NKp46 on NK cells purified from …; assay: flow cytometry titration on resting human NK cells from healthy donors, detection with goat anti-human IgG Fcγ-PE, 4-parameter fit; NK cells also carry CD16a
Procedure: as §1

[13] = molecular target: T3, human CD32a (human FcγRIIA); assay: SPR, fit Steady State Affinity, Exp No 3
[14] = molecular target: T5, human CD16b (human FcgRIIIB); assay: SPR, fit Steady State Affinity, Exp No 3
[15] = molecular target: T6, human CD32b (human FcγRIIB); assay: SPR, fit Steady State Affinity, Exp No 3
[16] = molecular target: T3, human CD32a (human FcγRIIA); assay: SPR, fit Steady State Affinity, Exp No 2
[17] = molecular target: T4, cynomolgus CD32a; assay: SPR, fit Steady State Affinity, Exp No 2
[18] = molecular target: T5, human CD16b (human FcgRIIIB); assay: SPR, fit Steady State Affinity, Exp No 2
[19] = molecular target: T6, human CD32b (human FcγRIIB); assay: SPR, fit Steady State Affinity, Exp No 2
[20] = molecular target: T7, cynomolgus CD32b; assay: SPR, fit Steady State Affinity, Exp No 2
[21] = molecular target: T9, human CD16a (human FcγRIIIA), V isoform; assay: SPR, fit Two State Reaction, Exp No 2
[22] = molecular target: T10, cynomolgus CD16; assay: SPR, fit Two State Reaction, Exp No 2
[23] = molecular target: T9, human CD16a (human FcγRIIIA), V isoform; assay: SPR, fit Two State Reaction, Exp No 1
[24] = molecular target: T10, cynomolgus CD16; assay: SPR, fit Two State Reaction, Exp No 1

T1 sequence (P12314 16-292 limits assumed): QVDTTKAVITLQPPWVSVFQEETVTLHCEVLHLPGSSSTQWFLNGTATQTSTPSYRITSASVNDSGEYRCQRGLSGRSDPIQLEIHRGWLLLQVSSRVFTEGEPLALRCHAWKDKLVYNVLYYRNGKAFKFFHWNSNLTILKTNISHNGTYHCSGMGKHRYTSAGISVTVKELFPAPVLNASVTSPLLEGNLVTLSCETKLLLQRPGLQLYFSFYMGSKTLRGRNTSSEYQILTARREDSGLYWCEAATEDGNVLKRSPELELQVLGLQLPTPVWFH

B1: NKp46-BCMA_Fc-ADE-DSB NKCE (bispecific antibody, human IgG1, kappa)
light: QTVVTQEPSLTVSPGGTVTLTCASSTGTVTPSNYANWVQQKPGQAFRGLIGDNNSRPPGTPARFSASLLGGKAALTLSGVQPEDEAEYYCALWFGNQWVFGGGTKLTVLGGGGSGGGGSDIQMTQSPSSLSASVGDRVTITCRASQDISNYLNWYQQKPGKAPKLLIYYTSRLHSGVPSRFSGSGSGTDFTFTISSLQPEDIATYFCQQGNTRPWTFGGGTKVEIKGGGGSGGGGSRTVAAPSVFIFPPSDEQLKSGTASVVCLLNNFYPREAKVQWKVDNALQSGNSQESVTEQDSKDSTYSLSSTLTLSKADYEKHKVYACEVTHQGLSSPVTKSFNRGEC
heavy: QVQLVQSGAEVKKPGSSVKVSCKASGYTFSDYVINWVRQAPGQGLEWMGEIYPGSGTNYYNEKFKAKATITADKSTSTAYMELSSLRSEDTAVYYCARRGRYGLYAMDYWGQGTTVTVSSQVQLVESGGGVVQPGRSLRLSCAASGFTFSNFGMHWVRQAPGRGLEWVAVIWSDETNRYYADSVKGRFTVSRDNVKSTVYLQMNSLISEDTAVYYCARDQQYCSSDSCFTWFDPWGQGTLVTVSSASTKGPSVFPLAPSSKSTSGGTAALGCLVKDYFPEPVTVSWNSGALTSGVHTFPAVLQSSGLYSLSSVVTVPSSSLGTQTYICNVNHKPSNTKVDKKVEPKSCDKTHTCPPCPAPELLAGPDVFLFPPKPKDTLMISRTPEVTCVVVDVSHEDPEVKFNWYVDGVEVHNAKTKPCEEQYNSTYRCVSVLTVLHQDWLNGKEYKCKVSNKALPAPEEKTISKAKGQPREPQVYTLPPCRDELTKNQVSLWCLVKGFYPSDIAVEWESNGQPENNYKTTPPVLDSDGSFFLYSKLTVDKSRWQQGNVFSCSVMHEALHNHYTQKSLSLSPG
chain: DKTHTCPPCPAPELLAGPDVFLFPPKPKDTLMISRTPEVTCVVVDVSHEDPEVKFNWYVDGVEVHNAKTKPCEEQYNSTYRCVSVLTVLHQDWLNGKEYKCKVSNKALPAPEEKTISKAKGQPREPQVCTLPPSRDELTKNQVSLSCAVKGFYPSDIAVEWESNGQPENNYKTTPPVLDSDGSFFLVSKLTVDKSRWQQGNVFSCSVMHEALHNRFTQKSLSLSPG
Kd [1]: 0.27 nM | Kd [2]: 0.32 nM | EC50 (read off the curve) [3]: ~0.9 µg/mL | Kd [4]: 678 nM | Kd [5]: 1500 nM | Kd [6]: 1760 nM | Kd [7]: 1280 nM | Kd [8]: 1080 nM | EC50 (read off the curve) [9]: ~1 µg/mL | Kd [10]: 16.5 nM | Kd [11]: 15.7 nM | EC50 [12]: 0.585 µg/mL and 0.863 µg/mL and 0.481 µg/mL | Kd [13]: 963 nM | Kd [14]: 2330 nM | Kd [15]: 1420 nM | Kd [16]: 656 nM | Kd [17]: 1440 nM | Kd [18]: 1690 nM | Kd [19]: 1060 nM | Kd [20]: 1070 nM | Kd [21]: 12.1 nM | Kd [22]: 9.3 nM | Kd [23]: 11.7 nM | Kd [24]: 10 nM
